Results: US20250290928A1, “METHOD, KIT AND DEVICE FOR DETECTING EXTRACELLULAR VESICLES” (priority 2022, published 2025)
No end group written: not given here. *: point of attachment. 5FAM = O=C1OC2(c3ccc(O)cc3Oc3cc(O)ccc32)c2ccc(C(=O)*)cc21; TQ2 = quencher

Key:
[1] = biological target: T1, MMP14 in the MDA-MB-231-derived extracellular vesicles (Homo sapiens, UniProt P50281); test: Evaluation of MMP14 activity of MDA-MB-231-derived extracellular vesicles with 96-well plate; assay type: biochemical
T1 construct: in terms of intact MMP14 with a molecular weight of 70 kDa
Description: A relative fluorescence unit difference ΔRFU was calculated by subtracting the measured value of the sample for BG measurement from the measured value of each of the samples.
The concentration of the solution is 41.7 μg/mL. The concentration of the solution was set to x1, and 2-fold serial dilution was performed to prepare standard samples with six concentrations.
50 μL of the MMP14 detection solution was added to 50 μL of each of the samples, a reaction was performed at 37° C., and MMP14 activity was evaluated.
The concentration of the solution is 10 μg/mL.
50 μL of each of the MMP14 detection solutions was added to 50 μL of each of the samples, a reaction was performed at 37° C., and MMP14 activity was evaluated. […]
The concentration of the solution is 20 μg/mL. The concentration of the solution was set to x1, and 3-fold serial dilution was performed to prepare standard samples with three concentrations.
The concentration of the solution is 8 μg/mL.
50 μL of each of the MMP14 detection solutions was added to 50 μL of the sample, a reaction was performed at 37° C., and MMP14 activity was evaluated. […]
50 μL of the MMP14 detection solution was added to 50 μL of each of the samples, a reaction was performed at 30° C., and MMP14 activity was evaluated.
The MMP14 activity of the extracellular vesicles was evaluated with a 96-well plate (137101). A fluorescence intensity was measured with a fluorescence plate reader (Synergy) at 30° C. every 5 minutes for 2 hours. For measurement wavelengths, an excitation wavelength of 545±20 nm and a fluorescence wavelength of 588±20 nm were used. A relative fluorescence unit difference (ΔRFU) was calculated by subtracting the measured value of the sample for BG measurement from the measured value of each of the samples.
50 μL of each of the MMP14 detection solutions was added to 50 μL of each of the samples, a reaction was performed at 30° C., and MMP14 activity was evaluated.

[2] = biological target: T1, MMP14 in the MDA-MB-231-derived extracellular vesicles; test: Digital detection of MDA-MB-231-derived extracellular vesicles through MMP14 activity in wells (microcompartments); assay type: biochemical; settings: for Extracellular vesicle concentration: at a concentration of x1, 50 fL; for Expected value λ / Number of positives / Positive ratio: Example 38, EV 2.5 μg/mL, reporter 5 μM, 30° C.
Description: The concentration of the solution is 6.7 μg/mL.
100 μL of the MMP14 detection solution was added to 100 μL of the sample to provide a reaction solution for wells. […] 100 μL of 200 μL of the prepared reaction solution for wells was used in the measurement of MMP14 activity with a 96-well plate.
Next, the wells were filled with the reaction solution by leaving the well array 200 to stand under reduced pressure to degas the space 205. After that, the space 205 was fed with hydrophobic solvents to be sealed. Fluorinated oils AsahiKlin AE-3000 (manufactured by AGC Inc.) and Fomblin Y-25 (manufactured by Solvay S.A.) were used as the hydrophobic solvents. A fluorinated oil Simoa (trademark) SR-X Sealing Oil: 102767 (manufactured by Quanterix Corporation) was further used as another hydrophobic solvent.
Well diameter: 4.25 μm Well depth: 3.25 μm Well capacity: 50 fL Number of wells in array: 239,000 Array range: 3 mm×4 mm
The concentration of the solution is 20 μg/mL. […] The concentration of the solution was set to x1, and 10-fold serial dilution was performed to prepare standard samples with five concentrations.
Next, the wells were filled with the reaction solution by leaving the well array 200 to stand under reduced pressure to degas the space 205. After that, the space 205 was fed with hydrophobic solvents to be sealed.
The concentration of the solution is 20 μg/mL. […] The concentration of the solution was set to x1, and 3-fold serial dilution was performed to prepare standard samples with three concentrations.
The concentration of the solution is 20 μg/mL. […] The concentration of the solution was set to x1, and 2-fold serial dilution was performed to prepare standard samples with four concentrations.
The concentration of the solution is 5 μg/mL.
50 μL of the MMP14 detection solution was added to 50 μL of the sample to provide a reaction solution for wells.
50 μL of each of the MMP14 detection solutions was added to 50 μL of the sample to provide a reaction solution for wells.
The concentration of the solution is 6.7 µg/mL.

[3] = Example 37, EV 5 μg/mL, reporter 5 μM, buffer (4)
[4] = MP, 1.25 μM with 5 μM Custom #2TF3
[5] = MP, 2.5 μM with 2.5 μM Custom #2TF3

Row | Substance | Fluorescence change after 2 hours of reaction at 30° C. [1, 3] | Fluorescence change after 2 hours of reaction at 30° C. [1, 4] | Fluorescence change after 2 hours of reaction at 30° C. [1, 5] | Expected value λ (×1) ([2]; Example 38, 4 hr) | Extracellular vesicle concentration ([2]; Example 38, 4 hr) [mL⁻¹] | Expected value λ (×1) ([2]; Example 38, 24 hr) | Extracellular vesicle concentration ([2]; Example 38, 24 hr) [mL⁻¹] | Expected value λ ([2]; 4 hr) | Number of positives ([2]; 4 hr) | Positive ratio ([2]; 4 hr) | Expected value λ ([2]; 24 hr) | Number of positives ([2]; 24 hr) | Positive ratio ([2]; 24 hr)
1 | TQ2-LAPLGLQRRK(5-FAM) (TQ2-LAPLGLQRRK(5FAM)) [Custom #11] | 33,665 ΔRFU | 12,156 ΔRFU | 18,065 ΔRFU | 0.5433 | 1.087e+10 | 1.166 | 2.3319e+10 | 0.1358 | 3,566 | 0.127 | 0.2915 | 7,100 | 0.2529
2 | TQ2-WPHGSLQAAK(5-FAM) (TQ2-WPHGSLQAAK(5FAM)) [Custom #16] | 4,424 ΔRFU | 852 ΔRFU | 1,489 ΔRFU | 0.06766 | 1.353e+09 | 0.3923 | 7.845e+09 | 0.01692 | 471 | 0.01677 | 0.09807 | 2,623 | 0.09341
3 | TQ2-WYPAGLRMVK(5-FAM) (TQ2-WYPAGLRMVK(5FAM)) [Custom #13] | 19,279 ΔRFU | 7,073 ΔRFU | 9,939 ΔRFU | 0.5455 | 1.091e+10 | 1.05 | 2.101e+10 | 0.1364 | 3,573 | 0.1275 | 0.2626 | 6,485 | 0.2309
4 | TQ2-YPPRPLLARK(5-FAM) (TQ2-YPPRPLLARK(5FAM)) [Custom #15] | 16,774 ΔRFU | 9,131 ΔRFU | 10,890 ΔRFU | 0.4993 | 9.986e+09 | 1.145 | 2.289e+10 | 0.1248 | 3,295 | 0.1173 | 0.2862 | 6,988 | 0.2489
